{
  "source": "IntAct's records for PubMed 20062059",
  "parents": {"B1": {"name": "GTP-binding protein RHO1 (Saccharomyces cerevisiae), P06780 (parent)", "chain": "MSQQVGNSIRRKLVIVGDGACGKTCLLIVFSKGQFPEVYVPTVFENYVADVEVDGRRVELALWDTAGQEDYDRLRPLSYPDSNVVLICFSIDLPDSLENVQEKWIAEVLHFCQGVPIILVGCKVDLRNDPQTIEQLRQEGQQPVTSQEGQSVADQIGATGYYECSAKTGYGVREVFEAATRASLMGKSKTNGKAKKNTTEKKKKKCVLL"}},
  "data": [
    {"variants_of": "B1", "details": "with sec3_yeast SEC3, P33332", "values": [
      {"variant": "MSQQVGNSIRRKLVIVGDGACGKTCLLIVFSKGQFPEVYVPTVFENYVADVEVDGRRVELALWDTAGQEDADRLRPLSYPDSNVVLICFSIDLPDSLENVQEKWIAEVLHFCQGVPIILVGCKVDLRNDPQTIEQLRQEGQQPVTSQEGQSVADQIGATGYYECSAKTGYGVREVFEAATRASLMGKSKTNGKAKKNTTEKKKKKCVLL", "note": "[Y71A]", "effect of a mutation on the interaction": "disrupting interaction"},
      {"variant": "MSQQVGNSIRRKLVIVGDGACGKTCLLIVFSKGQFPEVYVPTVFENYVADVEVDGRRVELALWDTAGAEDYDRLRPLSYPDSNVVLICFSIDLPDSLENVQEKWIAEVLHFCQGVPIILVGCKVDLRNDPQTIEQLRQEGQQPVTSQEGQSVADQIGATGYYECSAKTGYGVREVFEAATRASLMGKSKTNGKAKKNTTEKKKKKCVLL", "note": "[Q68A]", "effect of a mutation on the interaction": "disrupting interaction"},
      {"variant": "MSQQVGNSIRRKLVIVGDGACGKTCLLIVFSKGQFPEVYVPTVFENYVADVEVDGRRVELALWDTAGQEDYDALRPLSYPDSNVVLICFSIDLPDSLENVQEKWIAEVLHFCQGVPIILVGCKVDLRNDPQTIEQLRQEGQQPVTSQEGQSVADQIGATGYYECSAKTGYGVREVFEAATRASLMGKSKTNGKAKKNTTEKKKKKCVLL", "note": "[R73A]", "effect of a mutation on the interaction": "disrupting interaction"},
      {"variant": "MSQQVGNSIRRKLVIVGDGACGKTCLLIVFSKGQFPEVYVPTVAENYVADVEVDGRRVELALWDTAGQEDYDRLRPLSYPDSNVVLICFSIDLPDSLENVQEKWIAEVLHFCQGVPIILVGCKVDLRNDPQTIEQLRQEGQQPVTSQEGQSVADQIGATGYYECSAKTGYGVREVFEAATRASLMGKSKTNGKAKKNTTEKKKKKCVLL", "note": "[F44A]", "effect of a mutation on the interaction": "disrupting interaction"},
      {"variant": "MSQQVGNSIRRKLVIVGDGACGKTCLLIVFSKGQFPEVYVPTAFENYVADVEVDGRRVELALWDTAGQEDYDRLRPLSYPDSNVVLICFSIDLPDSLENVQEKWIAEVLHFCQGVPIILVGCKVDLRNDPQTIEQLRQEGQQPVTSQEGQSVADQIGATGYYECSAKTGYGVREVFEAATRASLMGKSKTNGKAKKNTTEKKKKKCVLL", "note": "[V43A]", "effect of a mutation on the interaction": "disrupting interaction"}
    ]}
  ]
}
